Measured values from patent publication US12503518B2, “Heparanase-neutralizing A54 monoclonal antibody” (TECHNION RESEARCH & DEVELOPMENT FOUNDATION LIMITED, priority 2020, dated 2025).

Experiments:
[1] = biological target: T1, recombinant human heparanase (Homo sapiens, UniProt Q9Y251); assay: heparanase activity assay: release of HS degradation fragments from 35S-labeled ECM; type: biochemical
T1 construct: purified recombinant active heparanase (200 ng) was pre incubated with the various hybridoma supernatants; recombinant active heparanase (200 ng) was preincubated with control mouse IgG or purified mAb A54
T1 sequence (Q9Y251 158-543 limits assumed): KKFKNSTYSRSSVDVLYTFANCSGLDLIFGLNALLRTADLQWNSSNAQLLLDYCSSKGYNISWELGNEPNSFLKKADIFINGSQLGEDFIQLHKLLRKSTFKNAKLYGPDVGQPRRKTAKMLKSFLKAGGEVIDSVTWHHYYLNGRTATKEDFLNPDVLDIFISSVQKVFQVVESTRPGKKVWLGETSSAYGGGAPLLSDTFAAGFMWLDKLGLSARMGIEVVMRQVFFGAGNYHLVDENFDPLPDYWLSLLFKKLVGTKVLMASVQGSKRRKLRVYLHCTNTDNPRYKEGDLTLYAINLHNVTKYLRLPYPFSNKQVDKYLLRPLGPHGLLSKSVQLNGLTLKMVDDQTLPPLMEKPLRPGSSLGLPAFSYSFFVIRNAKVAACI
T1 sequence (Q9Y251 36-109 limits assumed): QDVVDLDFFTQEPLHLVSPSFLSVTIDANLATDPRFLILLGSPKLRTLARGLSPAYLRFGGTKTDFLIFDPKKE
Protocol: Cell lysates, heparanase activity and protein blotting. Preparation of cell lysates, protein blotting, and measurement of heparanase enzymatic activity were carried out as described (Arvatz et al. Faseb J 2011; 24(12):4969-76). For inhibition studies, highly purified recombinant heparanase (200 ng) was pre-incubated with the indicated antibody ([…]) for 30 min on ice under neutral pH conditions (pH 7.2) before being added to ^35S-labelled ECM, used as a naturally produced substrate for heparanase (Gingis-Velitski et al. 2007, ibid.).
ECM degradation assay. […] More detail about the preparation of this substrate and its use for the heparanase assay can be found in: Current Protocols in Cell Biology (Vlodavsky 2001; pp. 10.4.1-10.4.14). Briefly, sulfate [^35S] labeled ECM coating the surface of 35 mm tissue culture dishes, is incubated (4 h, 37° C., pH 6.0, 1 ml final volume) with recombinant human heparanase (200 ng/ml) in the absence and presence of the A54 mAb. The reaction mixture contains: 50 mM NaCl, 1 mM DTT, 1 mM CaCl2), and 10 mM buffer Phosphate-Citrate, pH 6.0. To evaluate the occurrence of proteoglycan degradation, the incubation medium is collected and applied for gel filtration on Sepharose 6B columns (0.9×30 cm). Fractions (0.2 ml) are eluted with PBS and counted for radioactivity. […]
In order to select the hybridoma clone that best inhibits heparanase enzymatic activity, supernatants of the various hybridomas, raised against the 65 kDa latent heparanase protein, were collected, pre-incubated with recombinant heparanase and examined for the capacity to inhibit the release of heparan sulfate (HS) degradation fragments from sulfate labeled ECM. […] The mixture was then applied onto ^35S-labeled ECM-coated dishes and heparanase activity was determined as described under “Materials and Methods” above.
Next, the ability of purified mAb A54 to inhibit heparanase enzymatic activity was examined. […] The mixture was then applied onto dishes coated with ^35S-labeled ECM, and heparanase enzymatic activity was determined as described in ‘Methods’.

[2] = test system: Luc-U87 human glioma cells; assay: U87 glioma tumor growth in NOD/SCID mice, IVIS imaging; type: in vivo; settings: s.c. tumors, 500 μg/mouse, 3 times/week; vs PBS; P=0.04
Protocol: U87 glioma. Cells from exponential cultures of Luciferase labeled U87 glioma cells were detached with trypsin/EDTA, washed with PBS and brought to a concentration of 5×10^7 cells/ml. Cell suspension (5×10^6/0.1 ml) was inoculated subcutaneously at the right flank of 5-weeks old female SCID/Beige mice (n=7). Three days after cell inoculation, mice are randomly assigned to 2 cohorts (5-10 mice each) receiving (a) vehicle (PBS); and (b) A54 mAb (500 μg/mouse, 3 times/week). Tumor development is inspected (once a week) by IVIS imaging following administration of luciferin (see below) as described (Barash et al. FASEB J 2010; 24:1239-48, Barash et al., J Natl Cancer Inst. 110:1102-1114, 2018). […]
IVIS imaging. […] Imaging is performed in real time, is non-invasive and provides quantitative data. […] Light emitted from the bioluminescent cells is detected by the IVIS camera system with images quantified for tumor burden using a log-scale color range set at 5×10^4 to 1×10^7 and measurement of total photon counts per second (PPS) using Living Image software (Xenogen).
Similarly, Luc-U87 human glioma cells (5×10^6/0.1 ml) were inoculated subcutaneously (s.c.) at the right flank of 5-weeks old female NOD/SCID mice (n=5). […] Tumor growth was evaluated by IVIS imaging (FIGS. 5D and 5E) and quantification of luciferase signals is shown graphically (FIG. 5F).

[3] = test system: LPS-induced sepsis; assay: LPS-induced sepsis survival; type: in vivo, C57BL/6 mice; settings: 500 μg/mouse 30 min before LPS (15 mg/kg, i.p.); monitored 8 days
Protocol: In subsequent studies, the effect of mAb A54 on LPS-induced sepsis, was investigated. C57BL/6 mice (n=8) were treated with A54 mAb (500 μg/mouse) or Roneparstat (SST) (1.2 mg/mouse) or PBS as control, 30 min before LPS injection (15 mg/kg, i.p.). SST was given once again (1.2 mg/mouse) 16 hours after LPS administration. Survival of mice was monitored every 12 h for 8 days (FIG. 10).

B1: mAb A54: heparanase-neutralizing murine monoclonal antibody, IgG1-Kappa; VH SEQ ID NO: 7, VL SEQ ID NO: 8; binds HBD-II of heparanase (antibody, listed as Mus musculus, V domains shown)
VH: QVQLQQSGAELAKPGASVRMSCKASGYTFTNYWMHWVKQRPGQGLEWIGYINPTTGYTEYNQKFKDKATLTADKSSSTAYMQLSSLTSEDSAVYYCARGGAGYDYDEDYAMDYWGQGTSVTVSS
VL: DIVLTQSPASLAVSLGQRATISCRASESVEYFGTSYMNWYQQKPGQPPKLLIYLASILESGIPARFSGSGSGTDFTLNIHPVEEEDAATYYCQQSNEDPYTFGGGTKLEIK
B1 was tested. Which “inhibition of the enzyme” value ([1]; 0.1 μg/ml antibody, preincubated 1 h with active heparanase (200 ng), FIG. 3B) did it give?
The value was about 75%.

What about the “inhibition of heparanase enzymatic activity” value ([1]; 1 μg/ml antibody, preincubated 1 h with active heparanase (200 ng), FIG. 3A) of the same molecule?
Its value is “complete inhibition”.

And the “decrease in the amount of released sulfate labeled HS degradation products” value ([1]; hybridoma supernatant pre-incubated 2 h on ice with recombinant active heparanase (200 ng), FIG. 1)?
Its value is about 80%.

What about the “glioma tumor growth rate (IVIS luciferase signal)” value [2] of the same molecule?
Its value is “marked inhibition of the glioma tumor growth rate”.

And the “survival after LPS injection” value [3]?
Its value is “effectively protects mice from LPS-induced sepsis”.
